Key:
[1] = target: T1, Y2H PPD1-AD (Arabidopsis PPD1 full length with N-terminal GAL4 activation domain; pDEST22-PPD1) (Arabidopsis); assay: yeast two-hybrid (legend of FIG. 6)
T1 construct: Prey fusion in yeast; The legend says only 'PPD'; also called PPD1 fused to AD
T1 chain: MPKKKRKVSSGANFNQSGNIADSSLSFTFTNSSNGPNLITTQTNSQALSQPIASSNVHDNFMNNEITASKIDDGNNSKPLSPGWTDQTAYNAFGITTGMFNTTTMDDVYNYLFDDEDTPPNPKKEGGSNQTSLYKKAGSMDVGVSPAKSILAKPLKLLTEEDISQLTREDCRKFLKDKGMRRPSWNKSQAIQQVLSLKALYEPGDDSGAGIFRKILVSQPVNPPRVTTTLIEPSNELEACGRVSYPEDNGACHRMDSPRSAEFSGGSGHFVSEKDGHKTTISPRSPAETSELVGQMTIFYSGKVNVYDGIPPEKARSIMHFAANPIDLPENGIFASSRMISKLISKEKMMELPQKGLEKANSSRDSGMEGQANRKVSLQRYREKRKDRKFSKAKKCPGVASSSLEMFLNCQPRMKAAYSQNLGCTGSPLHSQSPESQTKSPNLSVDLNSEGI
Description: (§1) The ProQuest two-hybrid system (Invitrogen) was used to analyse interactions between PPD1, NINJA, TPL, and BZR1. Combinations of bait and prey constructs were used to co-transform yeast strain MaV203 (Invitrogen), with selection on synthetic dropout (SD) SD/-Leu/-Trp agar plates. Transformed strains were tested for interactions using 10 μl droplets of 1 in 10 and 1 in 100 dilutions on SD/-Leu/-Trp/-His plates with different concentrations of 3-aminotriazol (3-AT) (Sigma).

[2] = target: T2, Y2H BZR1-AD (Arabidopsis BZR1, At1g75080, full length, with N-terminal GAL4 activation domain; pDEST22-BZR1) (Arabidopsis); assay: yeast two-hybrid (ProQuest, MaV203, SD/-Leu/-Trp/-His with 3-AT)
T2 construct: Prey fusion in yeast; also called BZR1 fused to AD; Brassinazole Resistant 1
T2 chain: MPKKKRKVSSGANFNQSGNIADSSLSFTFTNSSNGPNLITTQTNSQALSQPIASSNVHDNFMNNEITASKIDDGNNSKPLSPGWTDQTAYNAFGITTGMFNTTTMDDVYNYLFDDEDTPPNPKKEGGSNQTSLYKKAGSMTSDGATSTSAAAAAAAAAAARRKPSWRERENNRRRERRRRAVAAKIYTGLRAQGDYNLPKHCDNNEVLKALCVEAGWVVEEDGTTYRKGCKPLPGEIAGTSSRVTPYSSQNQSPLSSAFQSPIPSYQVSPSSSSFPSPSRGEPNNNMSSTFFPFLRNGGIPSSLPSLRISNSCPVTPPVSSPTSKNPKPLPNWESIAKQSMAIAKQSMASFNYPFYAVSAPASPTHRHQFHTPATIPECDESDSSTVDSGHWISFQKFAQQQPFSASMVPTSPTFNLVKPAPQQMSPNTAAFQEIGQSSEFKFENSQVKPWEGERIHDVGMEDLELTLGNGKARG
Description: as §1

[3] = target: T3, Y2H RGA1-AD (DELLA protein RGA1 with GAL4 activation domain); assay: yeast two-hybrid, PPD1-DBD as bait, selective medium with 15 mM 3AT
T3 construct: Prey fusion in yeast, tested with PPD1-DBD as bait
T3 chain: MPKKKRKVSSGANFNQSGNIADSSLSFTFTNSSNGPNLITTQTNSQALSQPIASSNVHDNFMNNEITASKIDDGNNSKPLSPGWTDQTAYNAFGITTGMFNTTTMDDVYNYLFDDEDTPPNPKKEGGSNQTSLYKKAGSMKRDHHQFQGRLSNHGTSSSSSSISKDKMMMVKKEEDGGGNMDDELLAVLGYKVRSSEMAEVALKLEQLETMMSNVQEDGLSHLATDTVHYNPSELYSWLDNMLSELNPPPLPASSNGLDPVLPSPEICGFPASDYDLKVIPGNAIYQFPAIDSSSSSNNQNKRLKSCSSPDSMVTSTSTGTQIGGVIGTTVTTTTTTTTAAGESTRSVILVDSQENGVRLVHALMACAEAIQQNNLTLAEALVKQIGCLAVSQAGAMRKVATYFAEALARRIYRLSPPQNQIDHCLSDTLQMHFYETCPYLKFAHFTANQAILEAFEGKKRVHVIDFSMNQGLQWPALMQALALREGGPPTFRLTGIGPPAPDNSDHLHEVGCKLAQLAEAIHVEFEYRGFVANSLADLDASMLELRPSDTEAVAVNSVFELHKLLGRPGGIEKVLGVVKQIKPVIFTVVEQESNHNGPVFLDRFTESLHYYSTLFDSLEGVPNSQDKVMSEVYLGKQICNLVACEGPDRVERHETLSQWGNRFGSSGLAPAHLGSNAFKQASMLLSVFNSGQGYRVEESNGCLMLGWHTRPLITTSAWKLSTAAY
Source text: The ProQuest two-hybrid system (Invitrogen) was used to analyse interactions between PPD1, and RGA1. Full length coding sequences of PPD1, together with truncation or deletion derivatives of PPD1 (PPD1Δppd, PPD1Δtify, and PPD1Δjas*) (FIG. 5), were Gateway sub-cloned into pDEST32 (N-terminal GAL4DBD) or pDEST22 (N-terminal GAL4AD). When translated these generated the following peptide sequences: 55, 65, 66, 67, 68, 7169, which are PPD1-DBD, RGA1, RGA1-AD, PPD1-ppd-DBD, PPD1-tify-DBD, PP1-jas*-DBD respectively.
Combinations of bait and prey constructs were used to co-transform yeast strain MaV203 (Invitrogen), with selection on synthetic dropout (SD) SD/-Leu/-Trp agar plates. Transformed strains were tested for interactions using 10 μl droplets of 1 in 10 and 1 in 100 dilutions on SD/-Leu/-Trp/-His plates with different concentrations of 3-aminotriazol (3-AT) (Sigma). The PPD1-RGA1 interaction was tested with PPD1-DBD used as bait. Transformed yeast was spotted as a ten-fold dilution on control medium (−2) or selective medium (−3) with 15 mM 3AT. Controls were empty vectors, DBD, GAL4 DNA binding domain, AD, GAL4 activation domain (FIG. 5).

[4] = target: T4, Y2H NINJA-AD (Arabidopsis NINJA, At4g28910, full length, with N-terminal GAL4 activation domain); … (Arabidopsis); assay: yeast two-hybrid (legend of FIG. 7)
T4 construct: Prey fusion in yeast; also called NINJA fused to AD
T4 chain: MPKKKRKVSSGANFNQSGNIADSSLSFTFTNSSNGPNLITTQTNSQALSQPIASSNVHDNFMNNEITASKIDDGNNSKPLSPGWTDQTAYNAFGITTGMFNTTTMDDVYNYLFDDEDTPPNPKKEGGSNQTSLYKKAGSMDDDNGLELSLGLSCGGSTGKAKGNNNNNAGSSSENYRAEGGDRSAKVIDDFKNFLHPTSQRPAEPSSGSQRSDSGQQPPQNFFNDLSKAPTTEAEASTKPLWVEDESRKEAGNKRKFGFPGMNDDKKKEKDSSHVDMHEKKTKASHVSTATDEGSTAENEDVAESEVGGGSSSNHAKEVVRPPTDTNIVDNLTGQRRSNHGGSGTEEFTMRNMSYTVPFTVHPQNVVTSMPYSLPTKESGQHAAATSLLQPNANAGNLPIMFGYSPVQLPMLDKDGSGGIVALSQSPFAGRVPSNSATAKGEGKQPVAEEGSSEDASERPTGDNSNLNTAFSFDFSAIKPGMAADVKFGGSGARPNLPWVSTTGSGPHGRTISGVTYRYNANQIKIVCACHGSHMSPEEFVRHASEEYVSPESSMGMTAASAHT
Description: as §1

[5] = target: T4, Y2H NINJA-AD (Arabidopsis NINJA, …); assay: yeast two-hybrid (legend of FIG. 6)
Description: as §1

[6] = target: T2, Y2H BZR1-AD (Arabidopsis BZR1, …); assay: yeast two-hybrid (legend of FIG. 7)
Description: as §1

B1: Y2H PPD1-DBD (Arabidopsis PPD1, At4g14713, full length, with N-terminal GAL4 DNA binding domain; pDEST32-PPD1) (other)
chain: MKLLSSIEEACNICRLKKLKCSKEKPKCAKCLKNNWECRYSPKTKRSPLTRAHLTEVESRLERLEQLFLLIFPRENLNMILKMDSLQDIKALLTGLFVQDNVNKDAVTDRLASVETDMPLTLRQHRISATSSSEESSNKGQRQLTVSSRSNQTSLYKKAGSMDVGVSPAKSILAKPLKLLTEEDISQLTREDCRKFLKDKGMRRPSWNKSQAIQQVLSLKALYEPGDDSGAGIFRKILVSQPVNPPRVTTTLIEPSNELEACGRVSYPEDNGACHRMDSPRSAEFSGGSGHFVSEKDGHKTTISPRSPAETSELVGQMTIFYSGKVNVYDGIPPEKARSIMHFAANPIDLPENGIFASSRMISKLISKEKMMELPQKGLEKANSSRDSGMEGQANRKVSLQRYREKRKDRKFSKAKKCPGVASSSLEMFLNCQPRMKAAYSQNLGCTGSPLHSQSPESQTKSPNLSVDLNSEGI
notes: Bait fusion expressed in yeast strain MaV203 (ProQuest two-hybrid system); also called PPD1 fused to DBD; PPD1 bait
[1]
  binding result: binds
[2]
  binding result: no binding
[3]
  binding result: binds
[4]
  binding result: binds

B2: Y2H TPL-DBD (Arabidopsis TOPLESS, At1g15750, full length, with N-terminal GAL4 DNA binding domain; pDEST32-TPL) (other)
chain: MKLLSSIEEACNICRLKKLKCSKEKPKCAKCLKNNWECRYSPKTKRSPLTRAHLTEVESRLERLEQLFLLIFPRENLNMILKMDSLQDIKALLTGLFVQDNVNKDAVTDRLASVETDMPLTLRQHRISATSSSEESSNKGQRQLTVSSRSNQTSLYKKAGSMSSLSRELVFLILQFLDEEKFKETVHKLEQESGFFFNMKYFEDEVHNGNWDEVEKYLSGFTKVDDNRYSMKIFFEIRKQKYLEALDKHDRPKAVDILVKDLKVFSTFNEELFKEITQLLTLENFRENEQLSKYGDTKSARAIMLVELKKLIEANPLFRDKLQFPTLRNSRLRTLINQSLNWQHQLCKNPRPNPDIKTLFVDHSCGPPNGARAPSPVNNPLLGGIPKAGGFPPLGAHGPFQPTASPVPTPLAGWMSSPSSVPHPAVSAGAIALGGPSIPAALKHPRTPPTNASLDYPSADSEHVSKRTRPMGISDEVNLGVNMLPMSFSGQAHGHSPAFKAPDDLPKTVARTLSQGSSPMSMDFHPIKQTLLLVGTNVGDIGLWEVGSRERLVQKTFKVWDLSKCSMPLQAALVKEPVVSVNRVIWSPDGSLFGVAYSRHIVQLYSYHGGEDMRQHLEIDAHVGGVNDISFSTPNKQLCVITCGDDKTIKVWDAATGVKRHTFEGHEAPVYSVCPHYKENIQFIFSTALDGKIKAWLYDNMGSRVDYDAPGRWCTTMAYSADGTRLFSCGTSKDGESFIVEWNESEGAVKRTYQGFHKRSLGVVQFDTTKNRYLAAGDDFSIKFWDMDAVQLLTAIDGDGGLQASPRIRFNKEGSLLAVSGNENVIKIMANSDGLRLLHTFENISSESSKPAINSIAAAAAAAATSAGHADRSANVVSIQGMNGDSRNMVDVKPVITEESNDKSKIWKLTEVSEPSQCRSLRLPENLRVAKISRLIFTNSGNAILALASNAIHLLWKWQRNERNATGKATASLPPQQWQPASGILMTNDVAETNPEEAVPCFALSKNDSYVMSASGGKISLFNMMTFKTMATFMPPPPAATFLAFHPQDNNIIAIGMDDSTIQIYNVRVDEVKSKLKGHSKRITGLAFSNVLNVLVSSGADAQLCVWNTDGWEKQRSKVLPLPQGRPNSAPSDTRVQFHQDQAHFLVVHETQLAIYETTKLECMKQWAVRESLAPITHATFSCDSQLVYASFMDATVCVFSSANLRLRCRVNPSAYLPASLSNSNVHPLVIAAHPQEPNMFAVGLSDGGVHIFEPLESEGKWGVAPPAENGSASGAPTAPSVGASASDQPQR
notes: Bait fusion in yeast; also called TPL fused to DBD
[5]
  binding result: binds
[6]
  binding result: binds
